# Results from paper PMC7360973 (2020).
# Ends that are not written are not given here.
# Biological target: Human Hsc70 (HSPA8) (human, UniProt P11142 1-646)
# Assay: FP
# Chain of Human Hsc70 (HSPA8) (P11142 whole entry): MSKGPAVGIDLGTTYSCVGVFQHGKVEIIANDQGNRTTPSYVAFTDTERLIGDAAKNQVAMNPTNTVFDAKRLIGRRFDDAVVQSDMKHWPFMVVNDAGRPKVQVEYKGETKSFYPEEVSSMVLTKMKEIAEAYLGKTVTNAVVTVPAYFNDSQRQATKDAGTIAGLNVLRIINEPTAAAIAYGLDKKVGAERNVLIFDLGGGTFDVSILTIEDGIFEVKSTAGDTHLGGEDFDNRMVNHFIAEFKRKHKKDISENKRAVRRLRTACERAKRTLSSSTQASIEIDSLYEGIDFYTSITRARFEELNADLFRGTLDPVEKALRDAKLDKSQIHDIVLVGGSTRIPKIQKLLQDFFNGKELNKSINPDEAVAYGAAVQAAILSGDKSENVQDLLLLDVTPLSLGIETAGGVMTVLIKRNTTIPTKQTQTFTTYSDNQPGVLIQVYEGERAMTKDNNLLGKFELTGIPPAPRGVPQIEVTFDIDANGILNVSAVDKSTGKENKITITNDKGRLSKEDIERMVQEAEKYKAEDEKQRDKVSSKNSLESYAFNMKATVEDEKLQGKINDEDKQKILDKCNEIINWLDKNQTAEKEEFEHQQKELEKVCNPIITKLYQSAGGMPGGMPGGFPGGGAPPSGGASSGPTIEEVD
row,Binder,Kd [µM]
1,NRSSGSKRKC(fluorescein‑5‑maleimide) [Hsf1 peptide N200‐K208‐C_SSS],> 60
2,NMYGFRKVVHIEQC(fluorescein‑5‑maleimide) [Hsf1 peptide N74‐Q86‐C],> 60

# Continued, values first:
row,Kd [µM],Binder
1,> 60,PKYSRQFSLEHVHC(fluorescein‑5‑maleimide) [Hsf1 peptide P223‐H235‐C]
2,> 60,GVKRKSPSMSNC(fluorescein‑5‑maleimide) [Hsf1 peptide G204‐N214‐C_SSS]
